The source of these data is patent US20100016434.

The target in the data set is T1, biotinylated HIF1α peptide, Q16665.
T1 chain: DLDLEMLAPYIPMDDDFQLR

B1: EGLN3 in vitro translate (protein)
chain: MPLGHIMRLDLEKIALEYIVPCLHEVGFCYLDNFLGEVVGDCVLERVKQLHCTGALRDGQLAGPRAGVSKRHLRGDQITWIGGNEEGCEAISFLLSLIDRLVLYCGSRLGKYYVKERSKAMVACYPGNGTGYVRHVDNPNGDGRCITCIYYLNKNWDAKLHGGILRIFPEGKSFIADVEPIFDRLLFFWSDRRNPHEVQPSYATRYAMTVWYFDAEERAEAKKKFRNLTRKTESALTED
Turning to B1, the “EGLN3 prolyl hydroxylase activity on the HIF1α peptide, read by capture of 35S-labeled pVHL” value is reported as “EGLN3 hydroxylase activity was diminished in the face of increasing amount of succinate”.
